In patent US20190298770A1 (IOVANCE BIOTHERAPEUTICS, published 2019):

Legend:
[1] = target: T1, Programmed Death 1 Ligand 1 (PD-L1) (human, UniProt Q9NZQ7 19-290); assay: flow cytometry of 293-PD-L1 stained with 10 fold concentrated supernatant of TIL line M1015, Alexa 647 anti-human Fcγ [panel C]
T1 construct: also called CD274; B7-H1

[2] = target: T1, Programmed Death 1 Ligand 1 (PD-L1); assay: flow cytometry on EL4 PD-L1 cells, goat anti-human FITC, % of PD-L1 positive cells

T1 sequence (Q9NZQ7 19-290): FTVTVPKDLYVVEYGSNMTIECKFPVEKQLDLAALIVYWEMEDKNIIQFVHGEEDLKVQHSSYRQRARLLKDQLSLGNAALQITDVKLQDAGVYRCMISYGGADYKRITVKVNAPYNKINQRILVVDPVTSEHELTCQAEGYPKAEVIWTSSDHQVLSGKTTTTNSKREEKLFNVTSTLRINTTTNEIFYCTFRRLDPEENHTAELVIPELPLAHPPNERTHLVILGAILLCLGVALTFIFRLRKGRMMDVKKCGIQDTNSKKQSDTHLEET

Row | Molecule | % of cells in the upper left (PDL1 positive) quadrant [1] | binding result [2]
1 | FMC63-scFV-Fc (Fc fusion) | 1.02% | –
2 | anti-PD-L1 ScFV clone 38A1 (scFv, also called 38A1-scFV; scFV 38A1) scFv: EVQLVESGGGLVQPGGSLRLSCAASGFTFSNYAMSWVRQAPGKGLEWVSTISGSGGTTYYADSVKGRFTISRDNSKNTLYLQMNSLRVEDTAVYYCAKDWFRSSSPDAFDIWGQGTTVTVSAGGGGSGGGGSGGGGSGAPSYVLTQPPSVSVAPGQTARITCGGNNIGRKIVHWYQQRPGQAPVLVIYYDTDRPAGIPERFSGSNSGNMATLTISTVGAGDEADYYCQVWDTGSDHVVFGGGTKLTVL | – | binds
3 | anti-PD-L1 ScFV clone 19H9 (scFv, also called 19H9-scFV; scFV 19H9) scFv: QVQLQESGGGLVKPGGSLRLSCAASGFTFSSYSMNWVRQAPGKGLEWVSGINTAGDTHYPESVKGRFTISRDNARNSLNLQMNSLRAEDTAVYYCVRERVEREYSGYDAFDIWGQGTTVTVSAGGGGSGGGGSGGGGSGAPNFMLTQPHSVSESLGKTVTISCTGSSGSIARKFVQWYQQRPGSSPTTVIYENNQRPSGVSDRFSGSIGSSSNSASLTISGLKTEDEADYYCQSYDSSNVVFGGGTKVTVL | – | binds
